In one data set the test system is normal MRC-5 cells. Briefly: In vitro sensitivity to GCV of promoter-TK gene-introduced cells (Cell Counting Kit-8 survival). Format: cell-based, human. The conditions noted are these: HSV-TK gene controlled by the promoter, GCV seven days, FIG. 2A. The method, then: (§1) (1) In order to examine cytotoxic effects by the transcription activity of the promoter obtained from the midkine gene, herpes simplex virus thymidine kinase (HSV-TK), a suicide gene, was ligated downstream of MK0.6 and MK2.3, and the plasmid was introduced in cells, and a prodrug gancyclovir (GCV) was added into the culture medium of the gene-introduced cells. The method of determining the cytotoxic effect by this system is as described in Moolten, FL. Cancer Gene Ther., 1:279–287, 1994.
(§2) First, the CMV promoter of pcDNA3 (manufactured by Invitrogen) was removed using NruI and HindIII sites, to which MK2.3 or Mk0.6 was inserted, and then using the EcoRV site, the HSV-TK gene excised from pMK (Brinster, R L et al., Cell, 27:223–231, 1981) with BglI and EcoRI was inserted. Each of the plasmids thus obtained (MK2.3-TK and MK0.6-TK) was introduced, as described above, using lipofectin into MRC-5 which are normal cells, or MRC-5 cells that had been immortalized by inactivating the functions of the p53 tumor suppressor gene. In order to utilize the expression of the Neo gene contained in pcDNA3 as drug resistant markers, the cells were cultured with 400 μg/ml of G418 (manufactured by Life Technologies) for ten days to establish the cells that expressed MK2.3-TK and MK0.6-TK, respectively. These cells were then plated at 500 cells/well of 96-well culture plates, and were cultured in the presence of various concentrations of GCV (manufactured by F. Hoffman-La Roche) for seven days. The survival rate of the cells was examined using the Cell Counting Kit-8 (manufactured by Dojin Kagaku). The survival of the cells at a GCV concentration of 0 μg/ml was set as 100%, and the survival for each experiment group is shown in terms of percentage in FIG. 2A and FIG. 2B.
In general terms: Formazan colour is commonly taken as a measure of viable cells.

Data set [1] relates to immortalized MRC-5 cells (p53 functions inactivated). The description is as above. The conditions noted are these: HSV-TK gene powered by the promoter, GCV seven days, FIG. 2B. It is filed as cell-based, human. The method, then: as §1, §2
The test system of data set [2] is lung cancer cells QG-56, neuroblastoma NGP. Briefly: CAT assay of promoter transcription activity, tumor cells. Format: cell-based, human. The conditions noted are these: tumor cells versus normal cells. The method, then: Using the above plasmid, or a plasmid pCAT-Control (manufactured by Promega) having the promoter of SV40 virus, and a plasmid pCAT-Basic (manufactured by Promega) containing no promoters, gene introduction was performed on the lung cancer cells QG-56, the neuroblastoma NGP, and the normal human fibroblasts MRC-5 that were being cultured in a DMEM (Sigma) supplemented with 10% bovine fetal serum. After 10 μg each of these plasmids and lipofectin (Life Technologies) were mixed, it was allowed to stand at room temperature for 30 minutes to form a complex. Then the complex, after removing the bovine fetal serum therefrom, was contacted with the cells. Eight hours later culture medium supplemented with bovine fetal serum was added, cultured for 40 hours, and then the gene-introduced cells were disrupted by ultrasonication. After centrifugation, the supernatants were used to examine their transcription activities with the known CAT assay method (Gorman, C M et al., Mol. Cell. Biol., 2:1044–1051, 1982) using [^14C]-chloramphenicol and acetyl CoA. At this time, in order to normalize the efficiency of gene introduction, 1 μg of the β-galactosidase gene (pCH110, manufactured by Amersham) was introduced at the same time, and the β-galactosidase activity (Heromel, P. et al., Cell, 39:653–662, 1984) was determined.

The test system of data set [3] is human breast cancer cells OCUBM, MCF7, BT549. Briefly: Luciferase assay of c-erbB-2 promoter activity, breast cancer cells. It is filed as cell-based. The conditions noted are these: FIG. 7A. The method, then:
With the transcription initiation site of the c-erbB-2 gene as +1, DNA that corresponded to a genomic region (p533) from −435 to +38 and that had the sequence set forth in SEQ ID NO: 7 was amplified by the PCR method, and then the DNA fragment was integrated into the pGEM-TEasy (manufactured by Promega), and the sequences of the PCR product was determined. Thus, after inserting this PCR product into the SmaI site of pGL2-Basic (manufactured by Promega), it was cleaved with BlnI/SmaI, PstI/SmaI, and BssHII/SmaI using the restriction enzyme sites present on the c-erbB-2 genomic gene to construct plasmids in which the genomic regions of c-erbB-2, p344 (−306/+38) (DNA having the base sequence set forth in SEQ ID NO: 8), p251 (−213/+38) (DNA having the base sequence set forth in SEQ ID NO: 9) and p124 (−86/+38) (DNA having the base sequence set forth in SEQ ID NO: 10) are localized upstream of the Firefly luciferase gene, respectively. Using the plasmid pGL2-Control (manufactured by Promega) having the promoter of SV40 virus and the plasmid pGL2-Basic (manufactured by Promega) containing no promoters, gene introduction was performed in human breast cancer cells OCUBM, MCF7, BT549, normal human fibroblasts HEF, MRC-5, human malignant melanoma A875, and human lung cancer cells QG-56, all of which were cultured in DMEM (Sigma) supplemented with 10% bovine fetal serum. Firstly, after 10 μg each of these plasmids and lipofectin (Life Technologies) were mixed, it was allowed to stand at room temperature for 30 minutes to form a complex of DNA and lipid. […] After 48 hours-culture, the cells were disrupted using the Dual-Luciferase Reporter Assay System (manufactured by Promega), and the Firefly luciferase activity therein was determined using the reagents in the same kit. In order to normalize the efficiency of gene introduction, 1 μg of pRL-TK plasmid (manufactured by Promega) was included in each gene-introduced group, and the Renilla luciferase activity by the TK promoter was determined, based on which the Firefly luciferase activity was corrected.

The test system of data set [4] is human malignant melanoma A875, human lung cancer cells QG-56. The experiment in a line: Luciferase assay of c-erbB-2 promoter activity, non-breast tumor cells. Format: cell-based. The conditions noted are these: human malignant melanoma cells and human lung cancer cells; FIG. 7C. The method, then:
(§3) With the transcription initiation site of the c-erbB-2 gene as +1, DNA that corresponded to a genomic region (p533) from −435 to +38 and that had the sequence set forth in SEQ ID NO: 7 was amplified by the PCR method, and then the DNA fragment was integrated into the pGEM-TEasy (manufactured by Promega), and the sequences of the PCR product was determined. Thus, after inserting this PCR product into the SmaI site of pGL2-Basic (manufactured by Promega), it was cleaved with BlnI/SmaI, PstI/SmaI, and BssHII/SmaI using the restriction enzyme sites present on the c-erbB-2 genomic gene to construct plasmids in which the genomic regions of c-erbB-2, p344 (−306/+38) (DNA having the base sequence set forth in SEQ ID NO: 8), p251 (−213/+38) (DNA having the base sequence set forth in SEQ ID NO: 9) and p124 (−86/+38) (DNA having the base sequence set forth in SEQ ID NO: 10) are localized upstream of the Firefly luciferase gene, respectively. Using the plasmid pGL2-Control (manufactured by Promega) having the promoter of SV40 virus and the plasmid pGL2-Basic (manufactured by Promega) containing no promoters, gene introduction was performed in human breast cancer cells OCUBM, MCF7, BT549, normal human fibroblasts HEF, MRC-5, human malignant melanoma A875, and human lung cancer cells QG-56, all of which were cultured in DMEM (Sigma) supplemented with 10% bovine fetal serum. Firstly, after 10 μg each of these plasmids and lipofectin (Life Technologies) were mixed, it was allowed to stand at room temperature for 30 minutes to form a complex of DNA and lipid. Then the complex, after removing the bovine fetal serum therefrom, was contacted with the cells. Eight hours later culture medium supplemented with bovine fetal serum was added. After 48 hours-culture, the cells were disrupted using the Dual-Luciferase Reporter Assay System (manufactured by Promega), and the Firefly luciferase activity therein was determined using the reagents in the same kit. In order to normalize the efficiency of gene introduction, 1 μg of pRL-TK plasmid (manufactured by Promega) was included in each gene-introduced group, and the Renilla luciferase activity by the TK promoter was determined, based on which the Firefly luciferase activity was corrected.

Data set [5] concerns normal human fibroblasts HEF, MRC-5. The experiment in a line: Luciferase assay of c-erbB-2 promoter activity, normal fibroblasts. The conditions noted are these: FIG. 7B. Format: cell-based. The method, then:
as §3

Consider five molecules from patent publication US7030099B2, “Tumor specific promoters of the midkine gene that allow for selective expression in P53-inactivated cells” (Research Corporation Technologies, Inc., priority 2000, dated 2006).

Consider “MK2.3: 2.3 kb of the human midkine genomic gene, base sequence SEQ ID NO: 3; previously reported promoter [reference compound]”, for which the figures for the “sensitivity to GCV compared to that of the parent strain” value (with normal MRC-5 cells; in data set [1]) were 500 fold and 1000 fold, respectively. For the same molecule, the “tumor-specificity of promoter activity” value in data set [2] is reported as “weak”.

B1: p124: c-erbB-2 genomic region −86/+38, SEQ ID NO: 10 (nucleic acid, listed as Homo sapiens)
DNA: CGCGCTTGCTCCCAATCACAGGAGAAGGAGGAGGTGGAGGAGGAGGGCTGCTTGAGGAAGTATAAGAATGAAGTTGTGAAGCTGAGATTCCCCTCCATTGGGACCGGAGAAACCAGGGGAGCCC
modifications: expressed or natural sequence
For the molecule B1, the “transcription activity compared with other c-erbB-2 promoter fragments” value in data set [3] is “marked low compared with the p251 promoter”. The “transcription activity compared with SV40 promoter” value in data set [4] is “lower than the SV40 promoter”.

B2: p533: c-erbB-2 genomic region from −435 to +38, SEQ ID NO: 7; conventionally used promoter (nucleic acid, listed as Homo sapiens)
DNA: GGGGGTCCTGGAAGCCACAAGGTAAACACAACACATCCCCCTCCTTGACTATCAATTTTACTAGAGGATGTGGTGGGAAAACCATTATTTGATATTAAAACAAATAGGCTTGGGATGGAGTAGGATGCAAGCTCCCCAGGAAAGTTTAAGATAAAACCTGAGACTTAAAAGGGTGTTAAGAGTGGCAGCCTAGGGAATTTATCCCGGACTCCGGGGGAGGGGGCAGAGTCACCAGCCTCTGCATTTAGGGATTCTCCGAGGAAAAGTGTGAGAACGGCTGCAGGCAACCCAGGCGTCCCGGCGCTAGGAGGGACGACCCAGGCCTGCGCGAAGAGAGGGAGAAAGTGAAGCTGGGAGTTGCCGACTCCCAGACTTCGTTGGAATGCAGTTGGAGGGGGCGAGCTGGGAGCGCGCTTGCTCCCAATCACAGGAGAAGGAGGAGGTGGAGGAGGAGGGCTGCTTGAGGAAGTATAAGAATGAAGTTGTGAAGCTGAGATTCCCCTCCATTGGGACCGGAGAAACCAGGGGAGCCC
Consider B2, for which the “promoter activity compared with SV40 promoter” value in data set [5] is listed as “more potent than the SV40 promoter activity in some cases”.

B3: p344: c-erbB-2 genomic region −306/+38, SEQ ID NO: 8 (nucleic acid, listed as Homo sapiens)
DNA: CTAGGGAATTTATCCCGGACTCCGGGGGAGGGGGCAGAGTCACCAGCCTCTGCATTTAGGGATTCTCCGAGGAAAAGTGTGAGAACGGCTGCAGGCAACCCAGGCGTCCCGGCGCTAGGAGGGACGACCCAGGCCTGCGCGAAGAGAGGGAGAAAGTGAAGCTGGGAGTTGCCGACTCCCAGACTTCGTTGGAATGCAGTTGGAGGGGGCGAGCTGGGAGCGCGCTTGCTCCCAATCACAGGAGAAGGAGGAGGTGGAGGAGGAGGGCTGCTTGAGGAAGTATAAGAATGAAGTTGTGAAGCTGAGATTCCCCTCCATTGGGACCGGAGAAACCAGGGGAGCCC
In the case of B3, in data set [5], the “promoter activity compared with SV40 promoter” value is recorded as “more potent than the SV40 promoter activity in some cases”. In addition, the “transcription activity compared with SV40 promoter” value in data set [4] is “lower than the SV40 promoter”.

B4: MK1.0: 1.0 kb of the human midkine genomic gene, base sequence SEQ ID NO: 2 (nucleic acid, listed as Homo sapiens)
DNA: GGCCGCGCTCGTCGGGGCCGGGCGGGGGCCGATCCCTCCGGCTTCCCTTCCCGCGGAGAACAACAATGAAAGTGAAAGAGGGGTGGGGCGGGGGCGAGCCCGGGTTCTGTGGCCCATTTGCCCTGTGGCCTTGAGCAAGCCCCTCCCCCAGGCCTCGGGGGCTCTCCCGGTTTGGGGGAACCGGGCGAGGCAATGCCACAGGCCCAGGGTTAGAGGGGGTGGGCACTTGCAGCTGCCGATGTGGCTGGATCTGGAACTTCTCAGACGGCTCCTGTCAGCGCCAAGTTTCACCAAATCCAGGCCTGCGGGCTCCTCCCCCAGGACCCCCACTCGCAGTCCCTCAAGCCTGTGCTCCCGGAAAGGCACTGGGCGACCGCACCCGTGGCTTTCTCTGGGCGACCGGGTCCCAGACTCCCCCCAGCACAGCAGAGCGCTTCCCTGCCCACCCGCGGAAACCGCCCCAGGTGGCCGCGCCCCCTCCCCAGCAGCCAGCAGGGCGCCAGGGCTGAGCCGGCCGTGGAGGGGAGCGGGTCCCGGGGGTTATACAGGCGCCGGGCGTCCGCGGCAGGCAAGAGAAGCTGAGGCCTGAGAACGGCCCGGGCCTTGGCGTACGGCAGGGGACGACCTGGGATGGGGGCAGCGGGCGGCGGCGCAGGGAGTGGGCCGGGGCCGGTGTGCGCGGGCGGGACGGGGCCGGGGTCGGGAGACCACCGCTCGGAAGATGGGGCCGGGAGAGGCCGCCGTCGCAGCGCAGAGGGCACCGGCGGGGAGACGCGAGGACGCGGGGCCGGGAACACGGACGCCGGAGTAGAAGCGCGGGGGGGGCGGGCTGGAGCGGGGGCGGGGACGCCGGGGTCGGGGGCGGTGCGGGTTTGAGGGGAGGGGGCGGGGCGGGTCCTTCCCTGGGGGGGTGGGGAGAGGGGGCGGGGGCCCATGTGACCGGCTCAGACCGGTTCTGGAGACAAAAGGGGCCGCGGCGGCCGGAGCGGGACGGGCCCGGCGCGGGAGGGAGCGAAGCAGCGCGGGCAGCGAGCGAGTGAG
B4: in data set [2], the “tumor-specificity of promoter activity” value was “weak”.
